This is an account of results in paper doi:10.1101/2021.07.12.452090 (bioRxiv, 2021).

B1: aCTLA-4.26 (antibody, V domains shown)
VH: QVQLVESGGGVVQPGRSLRLSCAASGFTFSSYGMHWVRQAPGKGLEWVAVIWYDGSYKYYADSVKGRFTISRDDSKNTLYLQMSSLRAEDTAVYYCARAPHYAILTGYYEDYWGQGTLVTVSS
VL: not shown
B2: aCTLA-4.24 (antibody, V domains shown)
VH: QVQLVESGGGVVQPGRSLRLSCAASGFTFSSHGMHWVRQAPGKGLEWVAVIWYDGSNKHYADSVKGRFTISRDNSKNTLYLQMNSLRAEDTAVYYCARGDILTGYYGYWGQGTLVTVSS
VL: not shown
B3: aCTLA-4.4 (antibody, V domains shown)
VH: QVQLVESGGGVVQPGRSLRLSCAASGFTFSNYGMNWVRQAPGKGLEWVAVIWYDGRNKHYADSVKGRFTISRDNSKNTLYLQMNSLRAEDTAVYYCARGGDWGPYFDYWGQGTLVTVSS
VL: not shown
B4: aCTLA-4.9 (antibody, V domains shown)
VH: QVQLVESGGGVVQPGRSLRLSCAASGFTFSSFGMHWVRQAPGKGLEWVAVIWYDGRNKYYVDSVKGRFTISRDNSNNTLYLQMNSLRAEDTAVYYCARGEFFGEFFDYWGQGTLVTVSS
VL: EIVLTQSPGTLSLSPGEGATLSCRASQSFSSNYLAWYQQKPGQAPRLLIYGASSRATGIPDRFSGSGSGTDFTLTISRLEPEDFAVYYCQQYGTSPFTFGPGTKVDIK
B5: aCTLA-4.1 (antibody, V domains shown)
VH: QVQLVESGGGVVQPGRSLRLSCAASGFTFSRYGMHWVRQAPGKGLEWVAVIWYDGRNKYYADSVKGRFTISRDNSKNTLYLQMNSLRAEDTALYSCARAGELGPFDYWGQGTLVTVSS
VL: EIVLTQSPGTLSLSPGERATLSCRASQSVSYLAWYQQKPGQAPRLLIYGASSRATGIPDRFSGSGSGTDFTLTISRLEPEDFAVYYCQQYGSSPWTFGQGTKVEIK

Chain of His-tagged human CTLA-4 antigen (P16410 36-161): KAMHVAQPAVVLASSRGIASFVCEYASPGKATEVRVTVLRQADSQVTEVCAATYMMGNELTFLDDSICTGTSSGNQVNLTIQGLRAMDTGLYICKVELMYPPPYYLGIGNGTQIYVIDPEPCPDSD

The test has as its target His-tagged human CTLA-4 antigen (Homo sapiens, UniProt P16410).
With B1, the Kd is 5.7 nM.

B2: the equilibrium dissociation constant (Kd) stood at 6.8 nM.

In turn, B3 gave a Kd of 5.1 nM.

Regarding B4, the affinity, expressed as Kd, was 0.77 nM.

Regarding B5, the Kd was determined as 4.6 nM.
